In patent US20210309755A1 (FRED HUTCHINSON CANCER CENTER, published 2021) one finds Kd, koff and kon data, which are given here for one molecule.

As usually defined, the Kd is the constant that tells how readily two partners part at equilibrium. A higher Kd goes with a looser complex. In general, koff refers to the rate constant with which the complex falls apart. A lower koff goes with slow dissociation. As usually defined, the kon is a measure of how fast the partners come together. Low readings indicate slower complex formation, high ones faster complex formation.

In assay [1] the target is T1, MSLN-Avi ectodomain (human ectodomain of MSLN) (human, UniProt Q13421 296-598, limits assumed).
T1 construct: extracellular domain; Expressed in 293-F cells as the fusion sFlag-His-Scn-tev-MSLN-Avi and cleaved with TEV protease; It was the analyte in SPR, and I take it to be the MSLN in the Fab:MSLN crystal complex as well; not shown: Avi tag
The experiment in a line: SPR, Biacore T100, 25 C; antibody captured on goat anti-human Fc (57.1 +/- 0.8 RUs), MSLN-Avi as analyte 2.0-1000 nM in duplicate, 1:1 fit. Here is the method: (§1) Surface plasmon resonance (SPR) experiments were performed at 25° C. on a BIACORE™ T100 instrument (GE Healthcare) with a Series S CM4 chip using a running buffer of 10 mM HEPES, pH 7.4, 150 mM NaCl, 3 mM EDTA, 0.05% surfactant P20 with 0.1 mg/mL bovine serum albumin. Goat anti-human Fc antibody (Jackson Labs: 109005098) was amine coupled to the CM4 chip (˜2800 RUs) and each antibody was then captured on a single flow cell of immobilized goat anti-human Fc. The purified MSLN-Avi (discussed above) was run as a concentration series at 50 uL/min over the captured antibodies and the goat anti-human Fc reference surface. CM4 chip was regenerated with 10 mM glycine, pH1.5 for 30 sec at 50 uL/min. Data was double referenced and analyzed in BiaEval 2.0.4.

The target of assay [2] is T1, MSLN-Avi ectodomain (human ectodomain …). The experiment in a line: written beside the structure of the 1A12 Fab on MSLN; no assay named on the sheet (the value is the rounded SPR fit of FIG. 7A). On the procedure:
as §1

T1 sequence (Q13421 other isoform, or with tags, fused parts or gaps limits assumed): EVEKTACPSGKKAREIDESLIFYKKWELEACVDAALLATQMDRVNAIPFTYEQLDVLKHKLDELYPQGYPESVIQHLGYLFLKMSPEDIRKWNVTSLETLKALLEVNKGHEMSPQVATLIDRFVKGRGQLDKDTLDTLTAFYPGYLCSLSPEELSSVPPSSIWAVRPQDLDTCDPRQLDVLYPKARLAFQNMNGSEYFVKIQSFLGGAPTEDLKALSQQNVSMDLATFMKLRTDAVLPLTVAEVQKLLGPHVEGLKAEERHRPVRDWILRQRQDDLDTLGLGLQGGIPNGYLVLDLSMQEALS

B1: 1A12 anti-MSLN antibody (antibody, human IgG1, V domains shown)
VH: EVQLLESGGGLVQPGGSLRLSCAASGLTFRSYAMTWVRQAPGKGLEWVSGISVSGGITYYADSVKGRFTISRDNSKNTLYLQMNSLRAEDTAVYYCAKRGAAVGSFDYWGQGTLVTVSS
VL: DIQMTQSPSSLSASVGDRVTITCRSSQGIGSWLAWYQQKPEKAPQSLIYAASSLQSGVPSRFSGSGSGTDFTLTISNLQPEDFATYYCQQYNSYPLTFGGGTKVEIK
notes: also called 1A12b; anti-MSLN 1A12 antibody
In assay [1], B1 returned a Kd of 64.4 nM, an off-rate constant (koff) of 0.00458 s⁻¹ and a kon of 71100 M⁻¹ s⁻¹. Besides, binding in assay [2] was put at a Kd of 64 nM.
